Experimental data reported in article PMC5821868, “Human Semaphorin-4A drives Th2 responses by binding to receptor ILT-4” (Nature Communications, 2018).

Molecular target: T1, recombinant SEMA4A-Fc (Sino Bio. Inc) (human, UniProt Q9H3S1 33-683)
T1 construct: Semaphorin-4A (SEMA4A), human; Used only in the SPR experiment, coated on the CM5 chip; Probably the extracellular domain (surmise); no catalogue number is printed; also called hSEMA4A; source: bought: Sino Bio; Inc
T1 sequence (looked up): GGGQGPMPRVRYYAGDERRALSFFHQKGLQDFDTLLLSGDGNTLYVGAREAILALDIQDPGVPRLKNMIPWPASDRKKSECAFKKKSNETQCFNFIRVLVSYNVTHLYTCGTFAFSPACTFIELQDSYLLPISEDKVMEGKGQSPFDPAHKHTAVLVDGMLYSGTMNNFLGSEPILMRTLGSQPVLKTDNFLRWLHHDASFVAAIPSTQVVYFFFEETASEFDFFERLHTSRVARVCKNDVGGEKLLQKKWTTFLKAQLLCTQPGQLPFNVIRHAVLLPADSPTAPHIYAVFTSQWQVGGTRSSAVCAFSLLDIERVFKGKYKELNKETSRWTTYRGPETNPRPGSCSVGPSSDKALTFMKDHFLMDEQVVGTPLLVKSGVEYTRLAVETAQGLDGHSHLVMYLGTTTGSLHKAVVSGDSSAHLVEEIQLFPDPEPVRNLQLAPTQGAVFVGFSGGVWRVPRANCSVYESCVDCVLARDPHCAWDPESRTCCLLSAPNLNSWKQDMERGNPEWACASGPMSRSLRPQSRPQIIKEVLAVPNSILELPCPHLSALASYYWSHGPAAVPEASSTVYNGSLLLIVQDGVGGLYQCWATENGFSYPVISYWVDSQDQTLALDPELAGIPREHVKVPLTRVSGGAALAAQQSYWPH
Assay: SPR; SEMA4A-Fc (Sino Bio. Inc, 25 ug/ml) coated on a series S CM5 chip; ILT-4-Fc flowed at 10 to 0.625 uM in twofold dilutions; 25 °C; BIAcore T100
Conditions: both partners purified

B1: recombinant ILT-4-Fc fusion protein (R&D Systems) (Fc fusion, human, UniProt Q8N423 22-460, looked up)
chain: QTGTIPKPTLWAEPDSVITQGSPVTLSCQGSLEAQEYRLYREKKSASWITRIRPELVKNGQFHIPSITWEHTGRYGCQYYSRARWSELSDPLVLVMTGAYPKPTLSAQPSPVVTSGGRVTLQCESQVAFGGFILCKEGEDEHPQCLNSQPHARGSSRAIFSVGPVSPNRRWSHRCYGYDLNSPYVWSSPSDLLELLVPGVSKKPSLSVQPGPVMAPGESLTLQCVSDVGYDRFVLYKEGERDLRQLPGRQPQAGLSQANFTLGPVSRSYGGQYRCYGAHNLSSECSAPSDPLDILITGQIRGTPFISVQPGPTVASGENVTLLCQSWRQFHTFLLTKAGAADAPLRLRSIHEYPKYQAEFPMSPVTSAHAGTYRCYGSLNSDPYLLSHPSEPLELVVSGPSMGSSPPPTGPISTPGPEDQPLTPTGSDPQSGLGRHLGV
notes: Immunoglobulin-like transcript 4 (ILT-4, LILRB2), human; APC-labelled with the Zenon labeling kit for flow cytometry; Probably the extracellular domain of ILT-4 (surmise); no catalogue number is printed; also called APC-ILT-4-Fc; hILT-4; source: bought: R&D Systems
Work on B1 yielded a Kd of 3.8 µM.
